Like-named read-outs stand apart in the source and are kept apart here.
Tests used:
rabbit ACLT+pMx OA model = assay: rabbit ACLT+pMx OA model, static incapacitance test, comparison with Triamcinolone and anti-NGF-antibody (KK-rabbit-17-01); assay type: in vivo, New Zealand white (NZW) rabbits
Procedure: (§1) Baseline incapacitance measurement was made 2 times prior to surgery. OA was induced by ACLT+pMx knee surgery in rabbits in the right knee joint in week 0. […] Weight bearing was measured using a contact-free static incapacitance measurement whereby plates measure pressure put on the operated and injected right hindlimb in comparison to the left unoperated hindlimb. Data are percent weight put on the right over the left hindlimb, whereby 50% corresponds to equal loading of both legs and 0% to load on the unoperated left limb only. Effect size was compared to clinically effective Triamcinolone treatment. 1.41 mg Triamcinolone correspond to human equivalent dose calculation based on metabolic body weight, synovial fluid volume and cartilage surface area.
as §1, with “Effect size was compared to clinically effective Triamcinolone treatment. 1.41 mg Triamcinolone correspond to human equivalent dose calculation based on metabolic body weight, synovial fluid volume and cartilage surface area.” left out

[1] = test system: primary human meniscus cells; assay: NGF stimulated PGE2 release in primary human meniscus cells; assay type: cell-based; settings: 10 ng/ml rhNGF, 2 days; 0.1 μM Dexamethasone, 0.1 μM Triamcinolone, 375 ng/ml anti-betaNGF antibody, 300 ng/ml R399E
Procedure: Primary meniscus cells from total knee replacement surgeries were freshly prepared one day post-surgery within the frame of an ethical permission. First, skin and muscle were removed to isolate the menisci. The menisci were transferred into a 10 cm dish filled with HAM's F12+1% P/S+1% Amphotericin B. The tissue was cut into small pieces of approximately 3×3 mm and transferred into a sterile beaker for digestion. Digestion was performed for 16 h in 50 ml of a 0.4% Collagenase in HAM's F12+1% P/S+1% Amphotericin solution at 37° C., 7.5% CO2 under constant stirring. After 16 h the solution was pipetted through a 100 μm filter followed by a 40 μm filter and then centrifuged for 5 min at 1400 g. The remaining pellet, containing the cells was resuspended in 20 ml of HAM's F12+1% P/S+1% Amphotericin+10% FCS. Cell number was counted, and cell viability was determined. Finally, 10,000 cells per well were seeded in a 96 well plate. Cells were cultivated up to 1 week to reach confluency. In between medium was exchanged once. […] The effect of the individual compounds was compared to cells which were stimulated with rhNGF only. After 2 days incubation, the supernatant was removed for determination of Prostaglandin E2 (PGE2) in the medium.

BMPR-IB [2] = molecular target: T1, BMPR-IB (Homo sapiens, UniProt O00238); assay: in vitro binding affinity for BMPR-IB
Text: This can be achieved by specific substitutions of one or more amino acid residues relating to a BMPR-IB and/or BMPR-IA binding site in the amino acid sequence of a GDF-5 related protein.
The binding affinity of GDF-5 related proteins having specific substitutions is compared to the binding affinity of human wild-type GDF-5 related protein, in particular human wild-type GDF-5.

BMPR-IB [3] = molecular target: T1, BMPR-IB; settings: in vitro; cited from earlier work
BMPR-IA = BMPR-IA (Homo sapiens, UniProt P36894); settings: in vitro; cited from earlier work
OA patients = settings: cited from earlier work

T1 sequence (O00238 14-502): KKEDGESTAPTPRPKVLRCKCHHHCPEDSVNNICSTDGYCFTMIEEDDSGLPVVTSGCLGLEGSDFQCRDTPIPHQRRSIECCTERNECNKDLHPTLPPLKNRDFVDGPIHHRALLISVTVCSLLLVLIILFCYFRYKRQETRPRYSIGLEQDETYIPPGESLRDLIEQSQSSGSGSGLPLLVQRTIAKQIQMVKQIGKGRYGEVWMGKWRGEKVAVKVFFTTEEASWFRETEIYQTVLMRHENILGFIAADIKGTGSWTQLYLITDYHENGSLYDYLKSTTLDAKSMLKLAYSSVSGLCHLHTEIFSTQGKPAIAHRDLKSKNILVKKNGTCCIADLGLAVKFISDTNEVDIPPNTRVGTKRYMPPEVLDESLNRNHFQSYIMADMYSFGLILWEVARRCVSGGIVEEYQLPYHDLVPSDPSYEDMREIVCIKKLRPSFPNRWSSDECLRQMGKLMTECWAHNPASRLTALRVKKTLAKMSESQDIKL
Sequence of BMPR-IA (P36894 24-532): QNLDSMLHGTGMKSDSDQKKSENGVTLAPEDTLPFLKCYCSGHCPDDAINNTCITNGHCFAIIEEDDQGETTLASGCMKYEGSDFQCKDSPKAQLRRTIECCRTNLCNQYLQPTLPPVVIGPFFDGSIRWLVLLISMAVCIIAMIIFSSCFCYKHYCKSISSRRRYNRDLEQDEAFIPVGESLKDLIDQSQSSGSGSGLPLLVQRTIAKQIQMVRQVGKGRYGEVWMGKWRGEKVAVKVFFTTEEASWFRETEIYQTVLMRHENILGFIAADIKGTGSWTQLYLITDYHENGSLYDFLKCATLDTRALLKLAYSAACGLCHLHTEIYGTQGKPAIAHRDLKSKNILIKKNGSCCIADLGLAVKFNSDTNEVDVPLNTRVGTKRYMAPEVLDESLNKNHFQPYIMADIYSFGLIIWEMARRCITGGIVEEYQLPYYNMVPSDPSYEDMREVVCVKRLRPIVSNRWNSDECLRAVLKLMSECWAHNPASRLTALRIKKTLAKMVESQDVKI

Question: For `C[C@]12C=CC(=O)C=C1CC[C@H]1[C@@H]3C[C@@H](O)[C@](O)(C(=O)CO)[C@@]3(C)C[C@H](O)[C@@]12F` [Triamcinolone], which “symptomatic effect compared to placebo (incapacitance)” value (rabbit ACLT+pMx OA model; 1.41 mg IA in week 1, week 2 post surgery) is on record?
Answer: Its value is −11.6%.

Question: What about the “effect on pain (incapacitance)” value (rabbit ACLT+pMx OA model; 1.41 mg IA once in week 1, 6 hours after injection) of the same compound?
Answer: Its value is “significant effect on pain”.

Question: And the “rhNGF induced PGE2 in the medium” value [1]?
Answer: Its value is “significantly inhibited”.

Question: With “Wild-type GDF-5: morphogen, also known as bone morphogenetic protein-14 (BMP-14) or cartilage-derived morphogenetic protein-1 (CDMP-1)” as the compound, how does the “fold higher affinity for BMPR-IB as compared with BMPR-IA” value (BMPR-IB [2]) read?
Answer: Its value is 40- to 120 fold.

Question: And the Kd (BMPR-IB [3])?
Answer: The Kd was 0.008 to 0.027 nM.

Question: What about the Kd (BMPR-IA) of the same compound?
Answer: Its Kd is 1 to 1.1 nM.

Question: Which results are given for “tanezumab: anti-NGF (nerve growth factor) antibody (tanezumab, Pfizer) under clinical development for OA”?
Answer: incidence of RPOA overall (OA patients; tanezumab 2.5 mg arm): 3.2%; incidence of RPOA overall (OA patients; tanezumab 5 mg arm): 6.3%

— patent US20220387556A1, “USE OF THE GDF-5 MUTANT FOR THE TREATMENT OF PAIN AND CARTILAGE DESTRUCTION” (Merck Patent GmbH, priority 2019, published 2022)
